T1: LIN7A, O14910
T1 sequence (O14910 103-200, limits assumed, looked up): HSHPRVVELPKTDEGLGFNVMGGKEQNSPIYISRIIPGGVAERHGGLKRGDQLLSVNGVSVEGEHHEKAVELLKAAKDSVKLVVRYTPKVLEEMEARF

T2: SNTG1, Q9NSN8
T2 sequence (Q9NSN8 52-150, limits assumed, looked up): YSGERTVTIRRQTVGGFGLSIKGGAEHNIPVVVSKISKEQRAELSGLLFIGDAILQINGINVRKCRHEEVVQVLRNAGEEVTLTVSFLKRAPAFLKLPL

T3: RAPGEF6, Q8TEU7
T3 sequence (Q8TEU7 525-625, limits assumed, looked up): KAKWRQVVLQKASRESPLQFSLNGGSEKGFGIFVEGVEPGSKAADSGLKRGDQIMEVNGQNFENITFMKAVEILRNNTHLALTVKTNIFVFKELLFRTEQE

T4: MPP6, Q9NZW5
T4 sequence (Q9NZW5 125-219, limits assumed, looked up): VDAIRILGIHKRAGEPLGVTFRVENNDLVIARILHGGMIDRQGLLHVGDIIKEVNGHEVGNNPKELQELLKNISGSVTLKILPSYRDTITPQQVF

T5: GRIP1_4, Q9Y3R0
T5 sequence (Q9Y3R0 467-571, limits assumed, looked up): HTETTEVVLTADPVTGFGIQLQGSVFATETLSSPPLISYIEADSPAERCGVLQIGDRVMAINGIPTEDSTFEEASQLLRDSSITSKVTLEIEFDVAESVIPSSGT

T6: MPP7, Q5T2T1
T6 sequence (Q5T2T1 134-230, limits assumed, looked up): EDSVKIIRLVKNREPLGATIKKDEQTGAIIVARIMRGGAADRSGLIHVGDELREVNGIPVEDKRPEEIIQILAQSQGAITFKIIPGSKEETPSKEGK

T7: DLG3_3, Q92796
T7 sequence (Q92796 374-475, limits assumed, looked up): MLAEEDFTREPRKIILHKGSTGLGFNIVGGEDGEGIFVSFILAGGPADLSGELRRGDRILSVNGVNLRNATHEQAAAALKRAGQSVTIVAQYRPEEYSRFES

T8: APBA1_1, Q02410
T8 sequence (Q02410 651-752, limits assumed, looked up): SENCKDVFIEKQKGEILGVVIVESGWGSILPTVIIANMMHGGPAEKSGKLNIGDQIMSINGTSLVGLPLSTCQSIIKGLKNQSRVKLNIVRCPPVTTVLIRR


Tests used:
Assay in all cases: holdup assay
Set-up in all cases: key: below the threshold = too weak to quantify, mostly under pKd 3.1 to 4
Details in all cases: plain residues with an end cap or a label only (N-terminal biotin on a linker: ado-ado)
LIN7A, O14910 = target: T1, LIN7A, O14910
LNX1_1, Q8TBB1 = target: LNX1_1, Q8TBB1
LNX1_1, Q8TBB1, sequence (Q8TBB1 261-371): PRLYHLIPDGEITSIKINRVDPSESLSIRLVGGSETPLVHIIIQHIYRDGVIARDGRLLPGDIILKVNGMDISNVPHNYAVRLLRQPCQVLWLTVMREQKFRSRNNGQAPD

GRIP2_4, Q9C0E4 = target: GRIP2_4, Q9C0E4
GRIP2_4, Q9C0E4, sequence (Q9C0E4 446-548): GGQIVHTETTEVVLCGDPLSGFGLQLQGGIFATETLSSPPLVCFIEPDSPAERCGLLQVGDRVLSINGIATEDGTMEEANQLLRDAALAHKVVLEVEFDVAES

IL16_3, Q14005 = target: IL16_3, Q14005
IL16_3, Q14005, sequence (Q14005 1107-1207): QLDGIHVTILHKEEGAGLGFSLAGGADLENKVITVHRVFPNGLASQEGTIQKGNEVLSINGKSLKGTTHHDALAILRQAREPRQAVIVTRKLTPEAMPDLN

SNTG1, Q9NSN8 = target: T2, SNTG1, Q9NSN8
HTRA2, O43464 = target: HTRA2, O43464
HTRA2, O43464, sequence (O43464 355-458): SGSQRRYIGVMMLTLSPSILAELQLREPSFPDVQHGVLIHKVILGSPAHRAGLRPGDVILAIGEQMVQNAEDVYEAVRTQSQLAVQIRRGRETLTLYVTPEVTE

LNX1_3, Q8TBB1 = target: LNX1_3, Q8TBB1
LNX1_3, Q8TBB1, sequence (Q8TBB1 500-596): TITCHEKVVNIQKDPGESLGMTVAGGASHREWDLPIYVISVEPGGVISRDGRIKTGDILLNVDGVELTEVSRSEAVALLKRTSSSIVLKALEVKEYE

MAST1, Q9Y2H9 = target: MAST1, Q9Y2H9
MAST1, Q9Y2H9, sequence (Q9Y2H9 962-1065): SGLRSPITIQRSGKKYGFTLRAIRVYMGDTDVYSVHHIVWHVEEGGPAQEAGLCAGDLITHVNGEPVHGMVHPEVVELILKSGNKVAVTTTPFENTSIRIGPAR

Inadl_9, Q8NI35 = target: Inadl_9, Q8NI35
Inadl_9, Q8NI35, sequence (Q8NI35 1530-1615): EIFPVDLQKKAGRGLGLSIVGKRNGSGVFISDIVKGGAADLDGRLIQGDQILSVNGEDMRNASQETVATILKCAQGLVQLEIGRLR

FRMPD2_1, Q68DX3 = target: FRMPD2_1, Q68DX3
FRMPD2_1, Q68DX3, sequence (Q68DX3 770-861): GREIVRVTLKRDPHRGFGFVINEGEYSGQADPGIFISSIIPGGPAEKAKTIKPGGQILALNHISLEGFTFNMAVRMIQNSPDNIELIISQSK

PDZRN4_1, Q6ZMN7 = target: PDZRN4_1, Q6ZMN7
PDZRN4_1, Q6ZMN7, sequence (Q6ZMN7 213-318): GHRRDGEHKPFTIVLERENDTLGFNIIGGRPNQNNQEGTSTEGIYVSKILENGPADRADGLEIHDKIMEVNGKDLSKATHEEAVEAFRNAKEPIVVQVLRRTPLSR

RAPGEF6, Q8TEU7 = target: T3, RAPGEF6, Q8TEU7
MPP6, Q9NZW5 = target: T4, MPP6, Q9NZW5
DLG1_3, Q12959 = target: DLG1_3, Q12959
DLG1_3, Q12959, sequence (Q12959 457-571): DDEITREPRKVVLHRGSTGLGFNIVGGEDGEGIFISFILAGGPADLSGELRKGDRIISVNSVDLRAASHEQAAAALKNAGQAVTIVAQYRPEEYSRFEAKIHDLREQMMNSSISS

LIMK2, P53671 = target: LIMK2, P53671
LIMK2, P53671, sequence (P53671 143-248): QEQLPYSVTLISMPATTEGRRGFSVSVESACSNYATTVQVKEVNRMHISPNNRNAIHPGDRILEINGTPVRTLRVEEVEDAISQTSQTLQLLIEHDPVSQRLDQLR

GRIP2_6, Q9C0E4 = target: GRIP2_6, Q9C0E4
GRIP2_6, Q9C0E4, sequence (Q9C0E4 648-740): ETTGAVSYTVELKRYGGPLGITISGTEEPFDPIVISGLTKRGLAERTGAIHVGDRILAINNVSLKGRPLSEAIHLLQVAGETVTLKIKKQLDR

GRIP1_4, Q9Y3R0 = target: T5, GRIP1_4, Q9Y3R0
MPP7, Q5T2T1 = target: T6, MPP7, Q5T2T1
HTRA1, Q92743 = target: HTRA1, Q92743
HTRA1, Q92743, sequence (Q92743 360-477): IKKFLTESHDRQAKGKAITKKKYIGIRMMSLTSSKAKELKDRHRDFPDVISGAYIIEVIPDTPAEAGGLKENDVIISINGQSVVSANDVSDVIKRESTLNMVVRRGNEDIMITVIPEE

DLG3_3, Q92796 = target: T7, DLG3_3, Q92796
IL16_4, Q14005 = target: IL16_4, Q14005
IL16_4, Q14005, sequence (Q14005 1229-1329): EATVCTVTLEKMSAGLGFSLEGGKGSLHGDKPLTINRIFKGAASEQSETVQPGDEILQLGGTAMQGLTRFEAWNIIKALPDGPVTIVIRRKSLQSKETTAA

GRIP2_5, Q9C0E4 = target: GRIP2_5, Q9C0E4
GRIP2_5, Q9C0E4, sequence (Q9C0E4 544-642): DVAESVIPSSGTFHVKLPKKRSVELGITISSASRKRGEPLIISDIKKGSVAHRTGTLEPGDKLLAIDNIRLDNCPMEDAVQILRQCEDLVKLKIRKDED

MAGI1_2, Q96QZ7 = target: MAGI1_2, Q96QZ7
MAGI1_2, Q96QZ7, sequence (Q96QZ7 456-580): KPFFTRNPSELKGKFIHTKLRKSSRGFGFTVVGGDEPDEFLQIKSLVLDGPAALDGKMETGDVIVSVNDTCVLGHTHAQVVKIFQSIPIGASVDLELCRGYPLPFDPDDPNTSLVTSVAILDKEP

LDB3, O75112 = target: LDB3, O75112
LDB3, O75112, sequence (O75112 1-94): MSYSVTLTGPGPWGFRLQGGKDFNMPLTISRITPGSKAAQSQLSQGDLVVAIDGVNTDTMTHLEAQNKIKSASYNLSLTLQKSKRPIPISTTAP

FRMPD3, Q5JV73 = target: FRMPD3, Q5JV73
FRMPD3, Q5JV73, sequence (Q5JV73 12-100): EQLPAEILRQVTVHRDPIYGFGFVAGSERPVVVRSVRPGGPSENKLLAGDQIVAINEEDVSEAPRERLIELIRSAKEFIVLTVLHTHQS

NHERF4_4, Q86UT5 = target: NHERF4_4, Q86UT5
NHERF4_4, Q86UT5, sequence (Q86UT5 464-550): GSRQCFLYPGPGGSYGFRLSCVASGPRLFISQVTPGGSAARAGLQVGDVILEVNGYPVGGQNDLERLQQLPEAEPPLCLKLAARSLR

APBA1_1, Q02410 = target: T8, APBA1_1, Q02410
MAGI1_1, Q96QZ7 = target: MAGI1_1, Q96QZ7
MAGI1_1, Q96QZ7, sequence (Q96QZ7 1-106): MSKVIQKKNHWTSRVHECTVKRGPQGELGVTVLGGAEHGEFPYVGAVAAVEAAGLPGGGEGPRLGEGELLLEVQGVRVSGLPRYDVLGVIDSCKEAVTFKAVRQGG

CASK, O14936 = target: CASK, O14936
CASK, O14936, sequence (O14936 487-570): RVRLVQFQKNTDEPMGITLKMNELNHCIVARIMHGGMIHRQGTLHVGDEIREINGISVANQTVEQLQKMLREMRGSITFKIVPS

Binder	pKd (LIN7A, O14910)	pKd (LNX1_1, Q8TBB1)	pKd (GRIP2_4, Q9C0E4)	pKd (IL16_3, Q14005)	pKd (SNTG1, Q9NSN8)	pKd (HTRA2, O43464)	pKd (LNX1_3, Q8TBB1)	pKd (MAST1, Q9Y2H9)	pKd (Inadl_9, Q8NI35)	pKd (FRMPD2_1, Q68DX3)	pKd (PDZRN4_1, Q6ZMN7)	pKd (RAPGEF6, Q8TEU7)	pKd (MPP6, Q9NZW5)	pKd (DLG1_3, Q12959)	pKd (LIMK2, P53671)	pKd (GRIP2_6, Q9C0E4)	pKd (GRIP1_4, Q9Y3R0)	pKd (MPP7, Q5T2T1)	pKd (HTRA1, Q92743)	pKd (DLG3_3, Q92796)	further results
WAKEKQHTRL [SLC17A1, Q14916]	below the threshold	3.47	below the threshold	below the threshold	below the threshold	below the threshold	below the threshold	4.89	below the threshold	below the threshold	3.85	below the threshold	below the threshold	below the threshold	below the threshold	below the threshold	below the threshold	below the threshold	below the threshold	below the threshold	pKd (IL16_4, Q14005): below the threshold; pKd (GRIP2_5, Q9C0E4): below the threshold; pKd (MAGI1_2, Q96QZ7): 4.7; pKd (LDB3, O75112): below the threshold; pKd (FRMPD3, Q5JV73): below the threshold; pKd (NHERF4_4, Q86UT5): below the threshold; pKd (APBA1_1, Q02410): below the threshold; pKd (MAGI1_1, Q96QZ7): below the threshold; pKd (CASK, O14936): below the threshold
PALKNGQYWV [CSPG4, Q6UVK1]	below the threshold	below the threshold	below the threshold	below the threshold	below the threshold	4.72	below the threshold	below the threshold	4.16	3.82	below the threshold	below the threshold	3.83	below the threshold	below the threshold	3.58	below the threshold	3.96	5.1	below the threshold	pKd (IL16_4, Q14005): below the threshold; pKd (GRIP2_5, Q9C0E4): below the threshold; pKd (MAGI1_2, Q96QZ7): below the threshold; pKd (LDB3, O75112): below the threshold; pKd (FRMPD3, Q5JV73): below the threshold; pKd (NHERF4_4, Q86UT5): 4.05; pKd (APBA1_1, Q02410): below the threshold; pKd (MAGI1_1, Q96QZ7): below the threshold; pKd (CASK, O14936): below the threshold
SAGADSETHC [SLCO1B1, Q9Y6L6]	below the threshold	below the threshold	below the threshold	below the threshold	3.66	below the threshold	below the threshold	3.9	below the threshold	below the threshold	below the threshold	below the threshold	3.58	below the threshold	below the threshold	below the threshold	below the threshold	below the threshold	3.51	below the threshold	pKd (IL16_4, Q14005): below the threshold; pKd (GRIP2_5, Q9C0E4): below the threshold; pKd (MAGI1_2, Q96QZ7): below the threshold; pKd (LDB3, O75112): below the threshold; pKd (FRMPD3, Q5JV73): below the threshold; pKd (NHERF4_4, Q86UT5): below the threshold; pKd (APBA1_1, Q02410): below the threshold; pKd (MAGI1_1, Q96QZ7): below the threshold; pKd (CASK, O14936): below the threshold

The next lines start with results.

pKd (LIN7A, O14910)	pKd (LNX1_1, Q8TBB1)	pKd (GRIP2_4, Q9C0E4)	pKd (IL16_3, Q14005)	pKd (SNTG1, Q9NSN8)	pKd (HTRA2, O43464)	pKd (LNX1_3, Q8TBB1)	pKd (MAST1, Q9Y2H9)	pKd (Inadl_9, Q8NI35)	pKd (FRMPD2_1, Q68DX3)	pKd (PDZRN4_1, Q6ZMN7)	pKd (RAPGEF6, Q8TEU7)	pKd (MPP6, Q9NZW5)	pKd (DLG1_3, Q12959)	pKd (LIMK2, P53671)	pKd (GRIP2_6, Q9C0E4)	pKd (GRIP1_4, Q9Y3R0)	pKd (MPP7, Q5T2T1)	pKd (HTRA1, Q92743)	pKd (DLG3_3, Q92796)	Binder	further results
below the threshold	below the threshold	below the threshold	below the threshold	below the threshold	below the threshold	below the threshold	3.89	below the threshold	below the threshold	below the threshold	below the threshold	below the threshold	below the threshold	below the threshold	below the threshold	below the threshold	below the threshold	4.3	below the threshold	GVHSNDHSVV [LPAR1, Q92633]	pKd (IL16_4, Q14005): 3.76; pKd (GRIP2_5, Q9C0E4): below the threshold; pKd (MAGI1_2, Q96QZ7): below the threshold; pKd (LDB3, O75112): below the threshold; pKd (FRMPD3, Q5JV73): below the threshold; pKd (NHERF4_4, Q86UT5): below the threshold; pKd (APBA1_1, Q02410): below the threshold; pKd (MAGI1_1, Q96QZ7): below the threshold; pKd (CASK, O14936): below the threshold
below the threshold	below the threshold	below the threshold	below the threshold	3.57	below the threshold	below the threshold	4.65	below the threshold	below the threshold	below the threshold	3.48	3.54	below the threshold	below the threshold	below the threshold	below the threshold	below the threshold	3.91	below the threshold	YAEKRMLTEV [KCNA6, P17658]	pKd (IL16_4, Q14005): below the threshold; pKd (GRIP2_5, Q9C0E4): below the threshold; pKd (MAGI1_2, Q96QZ7): 4.54; pKd (LDB3, O75112): below the threshold; pKd (FRMPD3, Q5JV73): below the threshold; pKd (NHERF4_4, Q86UT5): below the threshold; pKd (APBA1_1, Q02410): below the threshold; pKd (MAGI1_1, Q96QZ7): below the threshold; pKd (CASK, O14936): below the threshold

— publication PMC9482650, “Quantitative fragmentomics allow affinity mapping of interactomes” (Nature Communications, 2022)
